Reference: publication PMC5240998, “Identification and Characterization of Single-Chain Antibodies that Specifically Bind GI Noroviruses” (PLoS ONE, 2017)

Target: T1, GI.1 norovirus (Norwalk virus) virus-like particles (Norwalk virus (norovirus GI.1), UniProt Q83884 1-530)
T1 construct: major capsid protein VP1 (ORF2) of Norwalk virus, genotype GI.1, assembled into virus-like particles; also called GI.1 VLPs; GI.1 VLP; copies: 180
T1 sequence: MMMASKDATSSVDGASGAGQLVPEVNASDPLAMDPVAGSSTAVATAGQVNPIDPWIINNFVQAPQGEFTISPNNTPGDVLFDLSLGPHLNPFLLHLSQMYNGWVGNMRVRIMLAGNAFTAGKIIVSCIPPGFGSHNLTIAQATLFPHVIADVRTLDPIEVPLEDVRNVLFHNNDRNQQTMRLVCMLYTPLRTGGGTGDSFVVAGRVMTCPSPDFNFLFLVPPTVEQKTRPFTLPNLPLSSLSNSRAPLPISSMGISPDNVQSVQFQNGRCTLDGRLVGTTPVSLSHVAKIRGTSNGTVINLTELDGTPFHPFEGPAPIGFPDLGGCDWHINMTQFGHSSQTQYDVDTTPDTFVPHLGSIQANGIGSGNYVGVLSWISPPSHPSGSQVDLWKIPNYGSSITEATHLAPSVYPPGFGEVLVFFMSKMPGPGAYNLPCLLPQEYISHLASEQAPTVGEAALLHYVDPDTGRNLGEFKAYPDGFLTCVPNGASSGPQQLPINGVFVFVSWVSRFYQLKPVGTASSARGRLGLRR
Assay: ELISA; phage ELISA: VLPs, P-domain, S-domain (CT303) or BSA coated directly on the plate (VLPs 5 ug/mL in PBS); 5 × 10^10 cfu phage per well in 1% MPBS, 2 h RT; detected with anti-M13 HRP; signal as ratio to M13KE phage
Details: both partners purified

B1: NV-N-R5-1 phage-displayed 12-mer peptide (peptide)
peptide: LPSWYLAYQKII
notes: source: first reported by Rogers et al [18]
Does B1 bind?
Result: binds
